Substrate: O=S(O)O
Test: purified protein
Format: biochemical, Homo sapiens
Details: pH 8.0, cytochrome c as electron acceptor, no added chloride

B1: wt hSO (human sulfite oxidase) (Homo sapiens) (protein)
chain: ESTHIYTKEEVSSHTSPETGIWVTLGSEVFDVTEFVDLHPGGPSKLMLAAGGPLEPFWALYAVHNQSHVRELLAQYKIGELNPEDKVAPTVETSDPYADDPVRHPALKVNSQRPFNAEPPPELLTENYITPNPIFFTRNHLPVPNLDPDTYRLHVVGAPGGQSLSLSLDDLHNFPRYEITVTLQCAGNRRSEMTQVKEVKGLEWRTGAISTARWAGARLCDVLAQAGHQLCETEAHVCFEGLDSDPTGTAYGASIPLARAMDPEAEVLLAYEMNGQPLPRDHGFPVRVVVPGVVGARHVKWLGRVSVQPEESYSHWQRRDYKGFSPSVDWETVDFDSAPSIQELPVQSAITEPRDGETVESGEVTIKGYAWSGGGRAVIRVDVSLDGGLTWQVAKLDGEEQRPRKAWAWRLWQLKAPVPAGQKELNIVCKAVDDGYNVQPDTVAPIWNLRGVLSNAWHRVHVYVSP
B1 was tested, and the kcat was 27 ± 2 s⁻¹.
